Measured values reported in PMC7062800.

How the values were obtained:
[1] = system: RdhK Hybrid A (Desulfitobacterium hafniense DCB-2 (chimera)); assay: EMSA; conditions: 200 uM Cl-OHPA; EMSA: 100 ng DNA, 2 uM protein, 200 uM effector, 15 uL; buffer 100 mM Tris-HCl pH 8.5, 40% glycerol, 10 mM MgCl2, 500 mM NaCl, 5 mM EDTA, 10 mM DTT …
[2] = system: RdhK Hybrid B (Desulfitobacterium hafniense DCB-2 (chimera)); assay: EMSA; conditions: 200 uM Cl-OHPA; EMSA: 100 ng DNA, 2 uM protein, 200 uM effector, 15 uL; buffer 100 mM Tris-HCl pH 8.5, 40% glycerol, 10 mM MgCl2, 500 mM NaCl, 5 mM EDTA, 10 mM DTT …

Sequence	binding signal [1] [% DNA bound]	binding signal [2] [% DNA bound]
GAATTCTCAGGCGATGTAACCGCTTTCAAATTTAGTATACGCTAAATATCTTAACAATGTGATAGCTATGATTGCACCG (double strand) [mgl-DB8]	100	100
GAATTCTCAGGCGATGTAACCGCTTTCAAAGTTAATACACATTAATACTCTTAACAATGTGATAGCTATGATTGCACCG (double strand) [mgl-DB7]	90	
